Usually Kd stands for the free concentration of one partner at which half of the binding sites on the other are occupied at equilibrium, for simple one-to-one binding.

Our source for the binding result and Kd values is patent US20140314744A1 (NEOTOPE BIOSCIENCES, published 2014).

The target of experiment [1] is T1, mouse MCAM (full length, on transfected CHO cells) (mouse, UniProt Q8R2Y2 24-648).
T1 construct: whole, on cells; also called murine MCAM; mouse MCAM transfected CHO cells
T1 sequence (looked up): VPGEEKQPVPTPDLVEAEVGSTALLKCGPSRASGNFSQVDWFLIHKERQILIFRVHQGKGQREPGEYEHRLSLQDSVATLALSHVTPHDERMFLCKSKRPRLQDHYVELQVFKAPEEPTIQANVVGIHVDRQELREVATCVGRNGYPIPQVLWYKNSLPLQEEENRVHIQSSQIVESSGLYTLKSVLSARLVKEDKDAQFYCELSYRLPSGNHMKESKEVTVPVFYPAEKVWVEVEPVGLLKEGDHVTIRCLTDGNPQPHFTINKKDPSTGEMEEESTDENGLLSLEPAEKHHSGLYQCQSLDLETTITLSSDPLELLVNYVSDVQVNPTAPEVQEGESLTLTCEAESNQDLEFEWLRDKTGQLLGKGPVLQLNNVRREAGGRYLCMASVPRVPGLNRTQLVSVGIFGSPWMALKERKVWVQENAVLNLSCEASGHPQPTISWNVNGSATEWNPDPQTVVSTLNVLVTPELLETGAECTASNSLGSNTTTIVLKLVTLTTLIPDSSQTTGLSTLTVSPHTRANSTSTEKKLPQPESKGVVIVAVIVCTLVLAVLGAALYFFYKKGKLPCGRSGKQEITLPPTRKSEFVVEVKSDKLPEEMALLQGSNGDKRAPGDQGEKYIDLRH
As to the kind of experiment: flow cytometry on MCAM transfected cells mixed with CFSE-labelled untransfected cells. The method, then:
(§1) MCAM-Fc was generated by fusing the extracellular domain of murine MCAM to human IgG and produced in CHO cells using standard techniques. Lou/M rats were immunized with 100 μg of MCAM-Fc protein in CFA (1:1 volume). Rats were boosted two times at two week intervals with MCAM-Fc protein in incomplete Freund's adjuvant (IFA) (1:1 volume). Hybridomas were generated from immunized rats using standard protocols and clones were selected by Clonepix. CHO cells were transfected with the full length murine MCAM gene and selected for stable expression using neomycin and standard techniques. Parental CHO cells (MCAM negative) were fluorescently labeled with carboxyfluorescein succinimidyl ester (CFSE) using standard techniques and mixed at a 1:1 ratio with unlabeled MCAM transfected CHO cells. Hybridoma supernatants were incubated with this mixture of cells for 30 minutes and binding of potential MCAM specific antibodies was detected with a fluorescently labeled anti-rat secondary antibody (Jackson Immuno) by flow cytometry.
(§2) Monoclonal antibodies against mouse MCAM were generated as described in Materials and Methods above. The specific binding between the monoclonal antibody and MCAM was confirmed by assessing the monoclonal antibody's ability to bind to cells transfected with either mouse or human MCAM. For this, untransfected cells were labeled with carboxyfluorescein succinimidyl ester (CFSE) and mixed with unlabeled MCAM transfected cells. Untransfected cells (in blue) could therefore be differentiated.
A general note: A flow cytometer gives signals particle by particle.

Experiment [2] concerns the target T2, human MCAM (on transfected cells) (human, UniProt P43121 24-646).
T2 construct: Cells transfected with human MCAM; also called CD146; MUC18
T2 chain: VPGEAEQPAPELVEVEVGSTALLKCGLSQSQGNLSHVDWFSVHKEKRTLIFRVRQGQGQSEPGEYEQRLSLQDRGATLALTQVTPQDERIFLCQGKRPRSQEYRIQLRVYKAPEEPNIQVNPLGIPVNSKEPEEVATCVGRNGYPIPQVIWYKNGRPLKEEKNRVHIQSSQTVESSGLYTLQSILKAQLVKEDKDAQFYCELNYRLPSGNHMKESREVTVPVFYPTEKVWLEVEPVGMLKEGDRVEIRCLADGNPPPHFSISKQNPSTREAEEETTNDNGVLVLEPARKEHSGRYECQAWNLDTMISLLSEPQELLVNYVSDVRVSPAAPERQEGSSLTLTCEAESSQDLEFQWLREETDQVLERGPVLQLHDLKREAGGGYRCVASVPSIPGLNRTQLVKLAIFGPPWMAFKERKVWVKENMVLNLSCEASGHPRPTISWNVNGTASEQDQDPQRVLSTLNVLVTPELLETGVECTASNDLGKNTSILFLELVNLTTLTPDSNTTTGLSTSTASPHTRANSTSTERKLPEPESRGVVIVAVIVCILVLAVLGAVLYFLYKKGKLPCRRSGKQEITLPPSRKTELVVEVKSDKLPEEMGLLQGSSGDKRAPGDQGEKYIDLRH
The description is as above. The method, then:
as §1, §2

Experiment [3] concerns the target T3, murine MCAM-Fc (extracellular domain of murine MCAM fused to human IgG) (mouse, UniProt Q8R2Y2 24-563).
T3 construct: extracellular domain; Produced in CHO cells; also called mouse MCAM-Fc protein; full length mouse MCAMhFc protein; not shown: human IgG (Fc) part
T3 sequence (looked up): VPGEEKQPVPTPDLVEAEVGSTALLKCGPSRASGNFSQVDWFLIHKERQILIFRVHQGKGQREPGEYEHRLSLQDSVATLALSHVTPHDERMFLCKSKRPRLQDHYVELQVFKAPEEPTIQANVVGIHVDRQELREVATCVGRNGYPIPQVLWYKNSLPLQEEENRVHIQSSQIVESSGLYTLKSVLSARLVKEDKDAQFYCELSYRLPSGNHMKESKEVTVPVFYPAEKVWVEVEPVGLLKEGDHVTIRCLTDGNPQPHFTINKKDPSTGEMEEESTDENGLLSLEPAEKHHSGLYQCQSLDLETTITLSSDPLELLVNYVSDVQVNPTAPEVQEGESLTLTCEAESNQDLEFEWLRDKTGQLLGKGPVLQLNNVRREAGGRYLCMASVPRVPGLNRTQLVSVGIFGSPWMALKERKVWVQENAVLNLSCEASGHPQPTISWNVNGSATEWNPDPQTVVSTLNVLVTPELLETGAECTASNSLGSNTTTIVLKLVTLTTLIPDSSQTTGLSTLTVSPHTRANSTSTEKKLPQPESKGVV
Nature of the experiment: ForteBio Octet Red, anti-human IgG Fc biosensor loaded with mouse MCAMhFc (5 ug/ml), dipped into clone 17 (5 ug/ml) or SP2 media. The source says:
(§3) The following protocol was used: ForteBio Domain Mapping Protocol. ForteBio anti-human IgG Fc biosensors were used to immobilize various mouse MCAMhFc domains including full length mouse MCAMhFc protein on to biosensor surface. These sensors were dipped into either clone 15 or 17 MCAM specific antibody for detection of binding to these domains or full length protein. After loading these samples into a black 96 well plate, the Octet Red was programmed as follows: 60 seconds for baseline #1; 180 seconds for loading various domains; 60 seconds for baseline #2; 180 seconds for association of antibody to domain; and 240 seconds for dissociation of antibody from domain.
(§4) For FIG. 10A-B, clones 15 and 17 were tested against the following protein samples (all have human IgG Fc tag): […]
Background: In BLI a coated tip is dipped into the sample, and binding shifts an interference pattern.

Experiment [4] concerns the target T4, Murine MCAM domain 1 and 2 (Ig1-2A) with human IgG Fc tag (mouse, UniProt Q8R2Y2 24-244, limits assumed).
T4 construct: domain: domain 1 and 2 (Ig1-2A); also called MCAM Fc domains 1 and 2; not shown: human IgG Fc tag
T4 sequence (looked up): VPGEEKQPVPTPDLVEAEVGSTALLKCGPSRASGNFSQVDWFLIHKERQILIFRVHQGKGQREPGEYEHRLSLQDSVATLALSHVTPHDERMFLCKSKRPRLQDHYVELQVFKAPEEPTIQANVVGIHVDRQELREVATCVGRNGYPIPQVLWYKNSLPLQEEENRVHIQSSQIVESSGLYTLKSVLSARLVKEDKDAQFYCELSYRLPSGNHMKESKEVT
Nature of the experiment: ForteBio Octet Red, domains on anti-human IgG Fc biosensors.
Text: as §3

The target in experiment [5] is T5, Murine MCAM domain 1 (Ig1) with human IgG Fc tag (mouse, UniProt Q8R2Y2 24-131, limits assumed).
T5 construct: domain: domain 1 (Ig1); also called MCAM Fc domain 1; not shown: human IgG Fc tag
T5 sequence (looked up): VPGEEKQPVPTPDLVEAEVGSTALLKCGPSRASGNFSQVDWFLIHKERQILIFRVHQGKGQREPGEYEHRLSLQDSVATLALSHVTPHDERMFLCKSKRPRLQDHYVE
Described as above.
Text: as §3

In the next experiment the target is T6, Ig2 domain (mouse, UniProt Q8R2Y2).
T6 construct: immunoglobulin domain 2 alone; also called Murine MCAM domain 2 (Ig2)
T6 sequence (Fc fusion chain, looked up): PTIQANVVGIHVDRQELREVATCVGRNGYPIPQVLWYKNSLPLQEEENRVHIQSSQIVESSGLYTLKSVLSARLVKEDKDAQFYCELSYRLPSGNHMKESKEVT
As to the kind of experiment: ForteBio Octet Red, anti-human IgG Fc biosensor loaded with the Ig2 domain hFc protein, dipped into clone 17 or SP2 media.
Text: as §3, §4

In experiment [6] the target is T7, Recombinant human laminin 511 (Biolamina) (human, UniProt O15230 36-3695; P07942 22-1786; P11047 34-1609).
T7 construct: Trimer α5β1γ1, bought; negative control
As to the kind of experiment: SPR (Biacore T200). Background: In SPR one partner is held on a chip, and binding of the other changes the refractive index at the surface.

Experiment [7] has as its target T8, Recombinant human laminin-α4 (R&D systems) (human, UniProt Q16363-2 826-1816).
T8 construct: also called laminin 4A chain; laminin A4 (α4) chain
T8 sequence (looked up): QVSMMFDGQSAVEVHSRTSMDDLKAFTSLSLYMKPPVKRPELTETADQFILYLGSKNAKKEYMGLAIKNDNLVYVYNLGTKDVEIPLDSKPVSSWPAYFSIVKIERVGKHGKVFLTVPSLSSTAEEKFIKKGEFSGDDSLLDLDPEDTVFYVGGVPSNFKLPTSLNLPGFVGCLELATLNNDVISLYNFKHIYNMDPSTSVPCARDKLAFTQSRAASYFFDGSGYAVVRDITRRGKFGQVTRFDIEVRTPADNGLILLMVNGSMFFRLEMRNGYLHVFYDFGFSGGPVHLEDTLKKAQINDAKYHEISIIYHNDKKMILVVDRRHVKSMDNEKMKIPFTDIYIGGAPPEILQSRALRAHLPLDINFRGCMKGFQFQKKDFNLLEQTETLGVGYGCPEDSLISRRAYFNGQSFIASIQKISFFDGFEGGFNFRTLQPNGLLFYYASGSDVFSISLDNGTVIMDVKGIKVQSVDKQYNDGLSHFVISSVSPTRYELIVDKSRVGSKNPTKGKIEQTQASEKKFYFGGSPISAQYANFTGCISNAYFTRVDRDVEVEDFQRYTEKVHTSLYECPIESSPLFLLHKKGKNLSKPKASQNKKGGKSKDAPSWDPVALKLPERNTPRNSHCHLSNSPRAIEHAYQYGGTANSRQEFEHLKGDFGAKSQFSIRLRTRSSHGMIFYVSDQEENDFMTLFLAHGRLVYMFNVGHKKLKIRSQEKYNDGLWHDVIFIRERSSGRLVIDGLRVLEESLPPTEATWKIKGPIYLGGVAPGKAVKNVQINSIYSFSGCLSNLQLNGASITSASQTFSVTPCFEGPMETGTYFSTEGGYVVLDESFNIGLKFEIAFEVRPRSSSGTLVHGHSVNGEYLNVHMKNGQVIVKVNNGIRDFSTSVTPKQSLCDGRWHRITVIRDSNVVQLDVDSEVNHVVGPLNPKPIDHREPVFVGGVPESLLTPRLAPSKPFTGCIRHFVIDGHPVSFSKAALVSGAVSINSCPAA
Nature of the experiment: SPR (Biacore T200), MCAM IgG1-2A captured by anti-Fc IgG, laminin in solution. The method, then: The binding affinity of the human laminin-α4 to human MCAM IgG1-2A was measured by Surface Plasmon Resonance on a Biacore T200 machine. Human Fc-specific F(ab′)₂ IgG (Jackson Laboratories) was immobilized on a CM5 chip using amine coupling. The four flow cells of the CM5 chips dextran surface are activated by a 7 min injection of freshly prepared 1:1 50 mM NHS: EDC at a flow rate of 5 μl/min. 70 μl IgG solution (pH 4.5) was injected for 3 min to a density of up to 3 000 RU. The coupling is then blocked by a 7 min injection of 1M ethanolamine to deactivate residual reactive sites. Recombinant human Fc-tagged MCAM IgG1-2A in degassed and filtered HBS-P buffer containing 12 mg/ml BSA and 12 mg/ml carboxy-methylated dextran sodium salt was captured by anti-Fc IgG to a capture level 1560 RU. Recombinant human Fc-tagged MCAM IgG1-2A was centrifuged at 14 000 rpm for 5 min at 4° C. before injection for 20 min at a flow rate of 5 μl/min over the anti-Fc IgG containing surface. Flow cell 1 was left free of IgG to serve as a control surface. One flow cell was used to capture recombinant human IgG1 Fc (R&D systems) to serve as a negative control. […] Buffer injections served as negative control. Data evaluation: Data from the buffer injections and the control surface were subtracted to remove artifacts. […]

B1: clone 17 monoclonal antibody (rat anti-MCAM) (antibody, V domains shown)
VH: EVQLVESGGGLVQPGRSLKLSCAASGFTFSNYYMAWVRQAPTKGLEWVASISFEGNRNHYGDSVKGRITISRDNAKSTLYLQMTSLRPEDTATYYCARHRGYSTNFYHDVLDAWGQGALVTVSS
VL: DVQMTQSPSYLATSPGESVSISCKASKNIDTYLAWYQEKPGKTNKLLIYSGSTLQSGTPSRFSGSGSGTDFTLTIRNLESEDFAVYYCQQHNEYPLTFGSGTKLEIKR
notes: Rat monoclonal from a hybridoma (Lou/M rats immunized with murine MCAM-Fc); also called anti-MCAM clone 17
With B1, the binding result is listed as “binds” in experiment [1]; “binds” in experiment [2]; “binds” in experiment [3]; “binds” in experiment [4]; “binds” in experiment [5]; “no binding (tested: 5 ug/ml)” with Ig2 domain.

B2: Recombinant human Fc-tagged MCAM IgG1-2A (Fc fusion)
chain: PRVAGVPGEAEQPAPELVEVEVGSTALLKCGLSQSQGNLSHVDWFSVHKEKRTLIFRVRQGQGQSEPGEYEQRLSLQDRGATLALTQVTPQDERIFLCQGKRPRSQEYRIQLRVYKAPEEPNIQVNPLGIPVNSKEPEEVATCVGRNGYPIPQVIWYKNGRPLKEEKNRVHIQSSQTVESSGLYTLQSILKAQLVKEDKDAQFYCELNYRLPSGNHMKESREVT
notes: also called human MCAM IgG1-2A; MCAM Fc domains 1 and 2; not shown: human Fc tag
As for B2, the binding result in experiment [6] was “no binding (tested: 5-175 nM)”. The Kd in experiment [7] was found to be 60 nM.
